Test results as given in the nanobody polyreactivity screen of Harvey et al. (2022).

Assay: yeast display, Sf9 membrane polyspecificity reagent, FACS + sequencing; frameworks hold sequencing errors
How it was run: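 Nanobodies from a synthetic yeast display library (Saccharomyces cerevisiae BJ5465), induced 36–48 hours with galactose, were stained 1 hour at 4 °C with 10% biotinylated, detergent-solubilized Sf9 membrane reagent, enriched on streptavidin microbeads, then FACS-sorted. Anti-HA (expression) and streptavidin (reagent binding) fluorescence set low and high (top ~1%) gates. Polyreactivity labels come from the gate of origin. Genes were colony-PCR amplified, MiSeq 2 × 250 sequenced and filtered by CDR length.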

Sequence	polyreactivity (PSR sort gate)
QVQLVESGGGLVQAGGSLRLSCAASGSIFGPYAMGWYRQAHGKERELVAAITISGGSTYYADSVKRRFTISRDNAKNTVYLQINSLKPEDTAVYYCAADYWVDYEYDYYWEYNYWGQGSQVTVSS	high polyreactivity
QVQLVESGGGLVQAGGSLRLSCAASGIIFTYYAMGWYRQAPGKERELVAAISDSGGGTYYADSVKGRFTISRDNAKNTVYLQMNSLKPEDTAVYYCAASGAWWDDYWGQGTQVTVSS	high polyreactivity
QVQLVESGGGLVQAGGSHRLSCAASGSTLSSYAMGWYRQAPGKERELVAAISSSSGSTYYADSVKGRFTISRDNAKNTVYLQMNSLKPEDTAVYYCAADFRYWGQGTQVTVSS	low polyreactivity
QVQLVESGGGLVQAGGSLRLSCAASGSTFQGYAMGWYRQAPGKERELVAVINRSGTNTYYADSVKGRFTISRDNAKNTVYLQMNSLKPEDTAVYYCNAQPSSKPPTYYYWGQGTQVTVSS	high polyreactivity
QVQLVESGGGLVQAGGSLRLSCAASGIIFVGNAMGWYRQAPGKERELVASINSGGSTYYADSVKGRFTISRDNAKNTVYLPMNSLKPEDTAVYYCAVEEARYYYDDYDYWGQGTQVTVSS	low polyreactivity
QVQLVESGGGLVQAGGSLRLSCAASGSIFWSNAMGWYRQAPGKELELVAAITTSDGSTYYADSVKGRFTISRDNAKNTVYLQMNSLKPEDNAVYYCAADASTWYTEEYWGQGTQVTVSS	low polyreactivity
QVHLVESGGGLVQAGGRLLLSCAASGLILRTYGMGWYRQAPRKERELVAVISSGGSTYYADSVNGRFTISRDNAKNTVYLQMNSLKPEDTAVYYCAVRSSWYEGDYWGQGTQVTVSS	low polyreactivity
QVQLVESGGGLVQAGGSLRLSCAASGIILYPYAMGWYRQAPGKERELVAAISWSGGSTYYADSVKGRFTISRDKAKNTVYLQMNSLKPEDTAVYYCNARYYGPSWNSYDYWGQGTQVTVSS	high polyreactivity
QVQLLESAGGLVQAGGSLRLRCSASGYISCDASMGWYRHAPGKERELAASITKGSSTNYADSEKGRFTIRDNAINTVYLQMNSLKPEDTAVCYCAVTYPYWGDYTYWGHGTQVTVSS	low polyreactivity
QVQLVESGGGLVQAGGSLRLSCAASGFTIYRYAMGWSRQAPGKERELVAAISGGGSRTYYADSVKGRFTISRDNAKNTVYLLMNSLKPEDTAVYYCNADPVKYSYDGYARPRYDYWGQGTQVTVSS	low polyreactivity
QVQLVESGGGLVQAGGSLRLSCAASGSIFYSYAMGWYRQAPGKEREFVATITWSGGRTYYADSVKGRFTISRDNAKNTFYLQMNSLKPEDTAVYYCNKRLFPYKGDYWGQGTQVTVSS	low polyreactivity
QVQLVESGAGLVQAGGSLRLSCAASGRTFNFYTMGWYRQAPGKERELVAAIDASGGRTYYADSVKGRFTISRDNAKNTVYLQMNSLKPEDTAVYYCAKYPRYSYVGYGYWGQGTQVTVSS	high polyreactivity
QVQLVESGGGLVQAGGSLRLSCAASGSIFNSNAMGWYRPAPGKEREFVATITQTGSSTYYADSVKGRFTISRDNAKNTVYLQMNSLKPEETAVYYCAVDWILYEYEDDFWYRYDYWGQGTQVTVSS	low polyreactivity
QVQLVESGGVLDPAGGSLRLSCAASGSTFISNAMRWYRQAPGKERELVATITYSDATTYYADSVKGRFTISRDNAKNTVYLQMNSLKPEDTAVYYCNTRFFRPLWGYNYWGQGTQVTVSS	low polyreactivity
QVQLVESGGGLVQAGGSLRLSCAASGITLPVYGKGWYRQAPGKERELVAVIDIVGITNYADSVKGRFTISRDNAKNTVYLQMNSLKPEDTAVYYCAKRYVYIADGGEYYYWGQGTQVTVSS	low polyreactivity
QVQLVESGGRLVQAGGSLRLSCAASGRNFGVNAMGWYRQAPGKERELVAAISVSGDSTYYADSVKGRFTISRDNAKNTVYLQMNSLKPEDTAVYYCNAGYTFVPADLTDEYYWGQGTQVTVSS	low polyreactivity
QVQLVESGGGLVQAGGSLRLSCAASGRIFRGYAMGWYIQAPGKEREFVADITRSGGSTYYADSVKGRFTISRDNAKNTVYLQMNSLKPEDTAVYYCAREWYQYSPYHRFDYWGQGTQVTVSS	high polyreactivity
QVQLVESGGGVVQAGGSLRLSCAASGSTLRDYVMGWYRQAPGKERELVAAITSRVDDTYYADSVKGRFTISRDNAKNNVYLEMNRLKPEDTAVYYCAADYSVTLRIGGYYWFYAFDYWGQGTQVTVSS	low polyreactivity
QVQLVESGGGLVQAGGSLRLICAASGFIFRSYAMGWYRQAPGKEREFDAGINRRGGSTYYADSVKGRFTISRDNAKNSVYLQMNILKPEDTAVYYCAAVYYNRVDYWGQGTQVTVSS	high polyreactivity
QVQLVESGGGLVQAGGSLRLSCAASGRTFVDYVMGWYRQAPGKERELVAAISRSGSTYYADSVKGRFTISRDNAKNTVYLQMNSLKPEDTAVYYCNVEYLRTYYILSDYWGQGTQVTVSS	low polyreactivity
QVQLVESGGGLVQAGGSLRLSCAASGSTYDYNAMGWYIQAPGKERELDAAINSGASTYYGDSVKGRFTISRDNEKNSVYLQMNSMKPEDTAVYYCAKDYPYIGDYWGQCTQVTVSS	low polyreactivity
QVQLVESGGGLVQAGGSLRLSCAASGRIFGRYAMGWYRQAPGKEWELVAAISNGGTTTYADSVKGRFTLSRDNAKNTVYLQMNSLKPEDTAVYYCADDWSYKIYVIQRWYGVDYWGQGTQVTVSS	low polyreactivity

Sequence	polyreactivity (PSR sort gate)
QVQLVESGGGLVQAGGSLRLSCAASGITFGYYAMGWYRQAPGKERELVAAISWSGDSTYYADSVKGRFTISRDNAKNTVSLQMNSLKPEDTPVYYCTRGSSWEYGAEYNYWGQGTQVTVSS	low polyreactivity
QVQLVESGGGLVQAGGSLRLSCAASGLIFPRNAMGWYRQAPGKERELVAAITSGGGTNYADSVKWRFTISRDNAKNTVYLQMNSLIPEDTAVYYCAADYSVASPDGPYVIYDYWGQGTQVTVSS	low polyreactivity
QVQLVESGGGLVQAGGSLRLSCAASGSIYEINAMGWYRQAPGKERELVAAITGSGGSTHYADSVKGRFTISRDNAKNTVYLQMNSLKPEDTAVYYCAAVPRYQYGYWGQGTQVTVSS	low polyreactivity
QVQLVESGGGLVQAGGSLRLSCAASGRTFYYYAMGWSRQAPGKERELVAAINRGGSTNYADSVKGRFTISRDNAKNTVYLQMNSQKPEATAVYDCNAAYYGPVRSKYVYWGQGTQVTVSS	high polyreactivity
QVQIVESGGGLVQAGGSLRLSCAASGITFGPYAMGWYRQAPWKERELVAAISYSGGNTYYADSVKGRFTISRDNAKNTVYLQMNSLKPEDTAVDYCARVQSLKYNYWGQGTQVTVSS	high polyreactivity
QVQLVESGGGLVQAGGSLRLSCAASGSTFWIYAMGWYRQAPGKERELVAAITLRSGSTYYADSVKGRFTISRDNAKNTVYLQMNSLKPEDTSVYYCATDSWGVDRPNYNYWGQGTQVTVSS	low polyreactivity
QVQLVESGGGLVQAGGSLRLSCAASGRTFRYYAMGWYRQAPGKERELVAAITSSGDSTYYADSVKGRFTISRDNAKNTVYLQMNSLKPEDTAVYYCAAGQPLFYDAEYGYWGQGTQVNVSS	low polyreactivity
QVQLVESGGGLVQAGGSLRLSCAASGSILGRYAMGWYRQAPGKERELVAAITSSGGRTYYADSVKGRFTISRDNAKNSVYLQMNSLKPEDTAVYYCAARYGRRLVWVPALLYDYWGQGTQVTVSS	high polyreactivity
QVQHVESGGGLVQAGGSLRLTCAASGFIFVIYAMGWYRTAPGKERELVAAITESGDRTYYADSVKGGFTISRDNAKNTVYLQMNSLKPEDTAVYYCNALLSYGYHAAYGYWGQGTQVTVSS	high polyreactivity
QVQLVESGGGLVQAGGSLRLSCAASGRIFGENAMGWYRQAPGKEREFVAVISISDASTYYADSVKGRFTISRDNAKNTVYLQMNSLKPEDTAVYYCNTDYINGYYIEGEPPYKFDYWGQGTQVTVSS	low polyreactivity
QVQLVESGGGLVQAGGSLRLSCAASGSTFFHYAMGWYRQAPGKERELVAAIDSNGGSTYYADSVKGRFTISRDNAKNTVYLQMNSLKPEDTAVYYCAADDLAEFEYDYWGQGTQVTVSS	low polyreactivity
QVQLVESVVGLVQAGGSLLISCAAYGLTFKGYAMVWYRQAPGKERELVAAITWDTGSTYYADSVKGRFSISRDNAKNTVYLQMNSLKPEDTAVYYCAAVGSTTTGVRRRGYWGHGTQVTVSS	high polyreactivity
QVQLVESGGGLVQAGGSLRLSCAASGRIHTYAMGWYRQAPGKERELVAAISFSGGSTYYADSVKGRFTISRDNAKNTVYLQMNSLKPEDTAVYYCAAGGGPNYFVDYGIRYDNWGQGTQVTVSS	low polyreactivity
QVQLVESGGGLVQAGGSLRLSCAASGIIFINYAMGWYRQAPGTERELVAVITRGGSTYYADSVKGRFTISRDNAKNTVYLQMNSLKPEDTAVYYCNARYLSWWTGRFNYWGQGTQVTVSS	high polyreactivity
QVQLVESGGGLVQAGGSLRLSCSASGSTIRDYAMGWYRQAPGKERELVAVIDNSGGRTYYADSVKGRFTISRDNAKNTVYLQMNSLKPEDTAVYYCNTRRIAQYGYWGQGTEVTVSS	high polyreactivity
QVQLVESGGGLVQAGGSLRLSCAASGSTFLQNAMGWYRQAPGKERELVAAISRSGGSTYYADSVKGRFTISRDNAKNTVYLQMNSLKPEDTAVYYCAAGGRRYDDDYWGQGTQVTVSS	high polyreactivity
QVQLVESGGGLVQAGGSLRLSCAASGFTLWLNAMGWYRQAPGKERELVAAITTSDDGTYYADSVKGRFTISRDTAKNTVYLQMNSLKPEDTAVYYCAADYYSVLYDYWGQGTQVTVSS	low polyreactivity
QVQLVESGGGLVQAGGSLRLSCAASGSTYISYAMGWYRQAPGKERELVAAITVSGGRTYYADSVKGRFTISRDNAKNTVYLQMNSLKPEDTAVYYCARGYARSRRWRFDYWGQGTQVTVSS	high polyreactivity
QVQLVESGGGLVQAGGSLRLSCAASGFTVGYAMGWYRQAPGKEREFVAAITRGGGTRTSYADSVKGRFTISRDNAKNTVYLQMNSLKPEDTAVSYCAARRWWSPRTQYDYWGQGTQVTVSS	high polyreactivity
QVQLVESGGGLVQAGGSLRLTCAASGIIFASNAMGWYRQAPGKEMELVATINWTDSSTYYADSVKGRFTISRDNAKNTVYLQMNSLKPEDTAVYYCNGVPHWFYRYGRYDYWGQGSQVTVSS	low polyreactivity
QVQLVESGGGLDQAGGSLRLSCAASGGILVIYAMGWYRQEPGKERELVAAINVSGGSTYYADSVKGRFTISRDNAKNTVYLQMNSLKPEDTAVYYCAALGPYLDYGVQYGYWGQGTQVTVSS	low polyreactivity
